Measurements as given in the supplement of paper PMC6757056.
± gives the standard deviation of the averaged measurements.

B1: library; a variant is named by its letters at N, in order (parent)
chain: GCUGUCACCGAGAAACUGUGAAGUAUAUCUUAAACCUGGGCACUUAAAAGAUAUAUGGAGUUAGUAGUGCAACCUGCUCGGUCUGAUGAGUCCNNNNNNGGACGAAACAGC

Tests used:
cyclic di-GMP [1] = variants of: B1; test: normalized RNA/DNA level without ligand (relative to sTRSVctl = 100) (log10 (% of sTRSVctl)); HEK293T; ligand: cyclic di-GMP (c-di-GMP-II aptamer); higher = less ribozyme self-cleavage, higher mRNA level; conditions: reporter: mCherry (pCS4076), ligand present: no
Summary of the method: (§1)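 Library plasmids encoding reporter-linked ribozyme switches (mCherry, or eGFP for some folinic acid experiments) were transfected into HEK293T at 4 µg per 6-well well. Ligand, when used, was added 1 h before transfection. Total RNA was extracted with EDTA 72 h later, then reverse-transcribed, amplified, barcoded and sequenced. RNA level was RNA reads over DNA reads, divided by a spiked-in non-cleaving control (or the top 25 sequences), ×100, log10; only sequences with ≥100 DNA reads were kept.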

cyclic di-GMP [2] = variants of: B1; test: normalized RNA/DNA level with ligand (relative to sTRSVctl = 100) (log10 (% of sTRSVctl)); HEK293T; ligand: cyclic di-GMP (c-di-GMP-II aptamer); ligand concentration (+) RNA-Seq: 1 mM; higher = less ribozyme self-cleavage, higher mRNA level; conditions: reporter: mCherry (pCS4076), ligand present: yes
Summary of the method: as §1

| Variant | normalized RNA/DNA level without ligand (log10) (cyclic di-GMP [1]) | normalized RNA/DNA level with ligand (log10) (cyclic di-GMP [2]) |
| --- | --- | --- |
| GCGUGG | 1.71 ± 0.051 | 1.78 ± 0.14 |
| GGAAAA | 1.3 ± 0.025 | 1.49 ± 0.12 |
| GGAAAC | 1.74 ± 0.088 | 1.83 ± 0.19 |
| CCUUAC | 1.71 ± 0.0031 | 1.83 ± 0.12 |
| CCUUAU | 1.6 ± 0.034 | 1.79 ± 0.087 |
| CCUCCA | 1.68 ± 0.031 | 1.83 ± 0.088 |
| CCUACU | 1.581 ± 0.011 | 1.76 ± 0.12 |
| CCUACG | 1.7 ± 0.021 | 1.82 ± 0.13 |
| CCUACA | 1.53 ± 0.07 | 1.77 ± 0.044 |
| GCUAUU | 1.568 ± 0.0067 | 1.74 ± 0.12 |
| GCUAUC | 1.53 ± 0.045 | 1.66 ± 0.13 |
| GCUCGG | 1.78 ± 0.018 | 1.88 ± 0.052 |
| GCUCGA | 1.57 ± 0.04 | 1.73 ± 0.099 |
| GCUCGC | 1.82 ± 0.042 | 1.87 ± 0.097 |
| UCUAAG | 1.64 ± 0.079 | 1.82 ± 0.072 |
| UCUAAC | 1.6887 ± 0.0016 | 1.83 ± 0.13 |
| GCUUUU | 1.67 ± 0.03 | 1.8 ± 0.11 |
| GCUUUC | 1.58 ± 0.022 | 1.75 ± 0.11 |
| GCUUUA | 1.63 ± 0.023 | 1.83 ± 0.1 |
| GCUUUG | 1.66 ± 0.03 | 1.83 ± 0.13 |
| ACUGAG | 1.54 ± 0.11 | 1.71 ± 0.031 |
| ACUGAC | 1.611 ± 0.012 | 1.77 ± 0.12 |
| CCUCAC | 1.698 ± 0.0058 | 1.85 ± 0.1 |
| CCUCAU | 1.65 ± 0.064 | 1.81 ± 0.057 |

| Variant | normalized RNA/DNA level without ligand (log10) (cyclic di-GMP [1]) | normalized RNA/DNA level with ligand (log10) (cyclic di-GMP [2]) |
| --- | --- | --- |
| ACUCGC | 1.73 ± 0.027 | 1.88 ± 0.15 |
| ACUCGU | 1.76 ± 0.043 | 1.85 ± 0.021 |
| ACUCGA | 1.52 ± 0.065 | 1.73 ± 0.11 |
| ACUCGG | 1.72 ± 0.074 | 1.76 ± 0.2 |
| CCUUGA | 1.63 ± 0.029 | 1.83 ± 0.095 |
| CCUUGC | 1.72 ± 0.059 | 1.83 ± 0.085 |
| CCUUGU | 1.75 ± 0.058 | 1.86 ± 0.1 |
| CCUUGG | 1.76 ± 0.081 | 1.9 ± 0.15 |
| ACUUAA | 1.49 ± 0.085 | 1.68 ± 0.13 |
| ACUUAU | 1.55 ± 0.042 | 1.73 ± 0.074 |
| ACUUAC | 1.7124 ± 0.0011 | 1.84 ± 0.096 |
| ACUGGC | 1.61 ± 0.084 | 1.79 ± 0.12 |
| GGAACC | 1.74 ± 0.039 | 1.86 ± 0.14 |
| GCUCUG | 1.629 ± 0.0036 | 1.8 ± 0.11 |
| GCUCUC | 1.66 ± 0.026 | 1.81 ± 0.079 |
| ACUCAU | 1.61 ± 0.022 | 1.81 ± 0.15 |
| ACUCAA | 1.52 ± 0.029 | 1.71 ± 0.099 |
| ACUCAC | 1.699 ± 0.0095 | 1.81 ± 0.092 |
| UCUCCU | 1.77 ± 0.003 | 1.91 ± 0.14 |
| UCUCCG | 1.839 ± 0.0029 | 1.94 ± 0.099 |
| UCUCCC | 1.81 ± 0.073 | 1.92 ± 0.14 |
| UCUCCA | 1.758 ± 0.012 | 1.85 ± 0.12 |
| UCUCAG | 1.75 ± 0.073 | 1.89 ± 0.098 |
| UCUCAC | 1.78 ± 0.018 | 1.87 ± 0.066 |

| Variant | normalized RNA/DNA level without ligand (log10) (cyclic di-GMP [1]) | normalized RNA/DNA level with ligand (log10) (cyclic di-GMP [2]) |
| --- | --- | --- |
| UCUCAU | 1.638 ± 0.0046 | 1.78 ± 0.061 |
| UCUCAA | 1.659 ± 0.013 | 1.83 ± 0.12 |
| ACUUUC | 1.73 ± 0.042 | 1.85 ± 0.13 |
| ACUUUG | 1.59 ± 0.037 | 1.76 ± 0.12 |
| CCUUUC | 1.7 ± 0.021 | 1.85 ± 0.098 |
| CCUUUU | 1.59 ± 0.065 | 1.77 ± 0.073 |
| CCUUUG | 1.59 ± 0.078 | 1.77 ± 0.053 |
| GCUUCG | 1.67 ± 0.022 | 1.76 ± 0.076 |
| GCUUCC | 1.72 ± 0.023 | 1.85 ± 0.034 |
| CCUAGA | 1.585 ± 0.0086 | 1.79 ± 0.074 |
| CCUAGC | 1.6495 ± 0.00083 | 1.82 ± 0.056 |
| CCUAGG | 1.79 ± 0.045 | 1.84 ± 0.13 |
| CCUAGU | 1.72 ± 0.02 | 1.85 ± 0.11 |
| GCUGCU | 1.682 ± 0.0098 | 1.8 ± 0.11 |
| GCUGCC | 1.67 ± 0.067 | 1.83 ± 0.16 |
| CCUUCG | 1.74 ± 0.0028 | 1.87 ± 0.14 |
| CCUUCC | 1.779 ± 0.0029 | 1.87 ± 0.12 |
| UCUACC | 1.798 ± 0.0078 | 1.88 ± 0.12 |
| UCUACG | 1.74 ± 0.011 | 1.89 ± 0.092 |
| UCUACA | 1.71 ± 0.025 | 1.86 ± 0.16 |
| UCUACU | 1.696 ± 0.012 | 1.82 ± 0.097 |
| GCUCCC | 1.71 ± 0.052 | 1.83 ± 0.17 |
| GCUCCA | 1.7142 ± 0.0002 | 1.83 ± 0.1 |
| GCUCCU | 1.71 ± 0.0058 | 1.85 ± 0.081 |

| Variant | normalized RNA/DNA level without ligand (log10) (cyclic di-GMP [1]) | normalized RNA/DNA level with ligand (log10) (cyclic di-GMP [2]) |
| --- | --- | --- |
| GCUCCG | 1.79 ± 0.028 | 1.92 ± 0.13 |
| AGAAAU | 1.71 ± 0.03 | 1.83 ± 0.058 |
| CCUGCA | 1.67 ± 0.056 | 1.84 ± 0.058 |
| CCUGCU | 1.698 ± 0.0032 | 1.84 ± 0.1 |
| CCUGCG | 1.8 ± 0.026 | 1.88 ± 0.13 |
| ACGUUG | 1.52 ± 0.083 | 1.74 ± 0.035 |
| ACGUUA | 1.49 ± 0.045 | 1.65 ± 0.13 |
| ACGUUC | 1.61 ± 0.045 | 1.8 ± 0.1 |
| ACUACU | 1.68 ± 0.041 | 1.82 ± 0.14 |
| ACUACG | 1.61 ± 0.022 | 1.81 ± 0.1 |
| ACUACC | 1.69 ± 0.04 | 1.86 ± 0.097 |
| ACUCCU | 1.72 ± 0.051 | 1.9 ± 0.1 |
| ACUCCG | 1.746 ± 0.0086 | 1.83 ± 0.15 |
| ACUCCA | 1.7 ± 0.02 | 1.84 ± 0.11 |
| GCGUUA | 1.54 ± 0.054 | 1.75 ± 0.11 |
| GCGUUC | 1.34 ± 0.19 | 1.55 ± 0.13 |
| GCGUUG | 1.56 ± 0.042 | 1.75 ± 0.11 |
| UGAAAG | 1.77 ± 0.047 | 1.87 ± 0.1 |
| UGAAAC | 1.705 ± 0.017 | 1.84 ± 0.062 |
| UGAAAA | 1.73 ± 0.024 | 1.82 ± 0.1 |
| CCGUUC | 1.6 ± 0.047 | 1.78 ± 0.056 |
| CCGUUA | 1.36 ± 0.096 | 1.59 ± 0.15 |
| CCGUUU | 1.53 ± 0.058 | 1.71 ± 0.14 |
| ACUAUU | 1.5 ± 0.047 | 1.7 ± 0.11 |

| Variant | normalized RNA/DNA level without ligand (log10) (cyclic di-GMP [1]) | normalized RNA/DNA level with ligand (log10) (cyclic di-GMP [2]) |
| --- | --- | --- |
| ACUAUC | 1.622 ± 0.012 | 1.79 ± 0.067 |
| ACUAUG | 1.586 ± 0.01 | 1.75 ± 0.087 |
| CCUGUC | 1.69 ± 0.019 | 1.87 ± 0.089 |
| CCUGUU | 1.67 ± 0.019 | 1.86 ± 0.084 |
| CCUGUG | 1.54 ± 0.12 | 1.76 ± 0.049 |
| CCUGGA | 1.56 ± 0.052 | 1.76 ± 0.069 |
| CCUGGG | 1.72 ± 0.018 | 1.82 ± 0.18 |
| CCUGGU | 1.672 ± 0.0096 | 1.83 ± 0.13 |
| UCUUUC | 1.755 ± 0.014 | 1.86 ± 0.089 |
| UCUUUU | 1.744 ± 0.012 | 1.84 ± 0.073 |
| UCUUUG | 1.731 ± 0.0025 | 1.89 ± 0.069 |
| UCUUUA | 1.65 ± 0.031 | 1.84 ± 0.11 |
| CCUAAC | 1.66 ± 0.033 | 1.8 ± 0.097 |
| CCUAAG | 1.56 ± 0.049 | 1.74 ± 0.095 |
| CCUAAA | 1.4 ± 0.07 | 1.61 ± 0.14 |
| CCUAAU | 1.53 ± 0.042 | 1.73 ± 0.14 |
| UCGUGC | 1.67 ± 0.017 | 1.86 ± 0.12 |
| UCGUGA | 1.47 ± 0.082 | 1.73 ± 0.09 |
| UCGUGU | 1.617 ± 0.0058 | 1.81 ± 0.1 |
| UCGUGG | 1.738 ± 0.004 | 1.89 ± 0.11 |
